Source: patent publication US20240301039A1 (NEW YORK UNIVERSITY IN ABU DHABI, published 2024)

Target: T1, uniformly 15N,13C-labelled wild-type SARS-CoV-2 NSP9 with an additional GlyAlaMetGly tetrapeptide at the … (SARS-CoV-2, UniProt P0DTD1 1-7096)
T1 construct: mature
Assay: 15N-1H HSQC NMR titration at 278 K

B1: nanobody 2NSP23 (VHH)
VHH: QVQLQESGGGLVQPGGSLRLSCAASGLAFSMYTMGWFRQAPGKEREFVAMIISSGDSTDYADSVKGRFTISRDNGKNTVYLQMDSLKPEDTAVYYCAAPKFRYYFSTSPGDFDSWGQGTQVTVSS
notes: also called 2NSP23 with His Tag
  backbone amide cross-peaks that survive at protein/nanobody ratio 1:2: ~35%
